Experiment [1] deals with human wild type FLT3 (human) (UniProt P36888). The experiment can be described thus: cell-based or functional assay.
In experiment [2] the target is human wild type CD123 (human) (UniProt P26951). Nature of the experiment: cell-based or functional assay.
Sequence of UniProt P26951 (P26951 19-378 limits assumed): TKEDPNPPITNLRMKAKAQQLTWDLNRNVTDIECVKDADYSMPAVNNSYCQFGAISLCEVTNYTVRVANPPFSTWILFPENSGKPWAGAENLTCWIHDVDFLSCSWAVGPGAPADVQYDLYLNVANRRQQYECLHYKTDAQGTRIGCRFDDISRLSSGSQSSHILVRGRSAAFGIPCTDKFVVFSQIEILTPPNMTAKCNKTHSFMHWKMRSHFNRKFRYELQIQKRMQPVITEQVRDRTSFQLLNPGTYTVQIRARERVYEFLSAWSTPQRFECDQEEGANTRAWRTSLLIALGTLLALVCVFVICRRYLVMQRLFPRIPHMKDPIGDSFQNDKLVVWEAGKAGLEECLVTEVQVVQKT

In experiment [1], “4G8-CAR (IgG4 hinge, CD28 TM, CD28z, CD3z) targeting FLT3 domain 4” registered a surviving K562 target cells at E:T=10 relative to E:T=0 below 2%.
As to “CSL362-CAR (CD8a hinge, CD28 TM, CD28z, CD3z) targeting CD123 N-terminal domain”, the surviving K562 target cells at E:T=10 relative to E:T=0 in experiment [2] is below 2%.

These data come from patent US20250170182A1.
